Measured values reported in the nanobody polyreactivity screen of Harvey et al. (2022).

Experiment: yeast display, Sf9 membrane polyspecificity reagent, FACS + sequencing; frameworks hold sequencing errors
Outline: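 Galactose-induced (36–48 hours) yeast carrying a synthetic nanobody display library were exposed to 10% biotinylated, detergent-solubilized Sf9 membrane reagent at 4 °C for 1 hour. FACS followed streptavidin microbead enrichment, using low and high (top ~1%) gates for expression (anti-HA) and reagent binding (streptavidin). Colony PCR, MiSeq 2 × 250 sequencing and CDR-length filtering followed. Labels for polyreactivity reflect the gate of origin.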

| Sequence | polyreactivity (PSR sort gate) |
| --- | --- |
| QVQLVESGGGLVQAGGSLRLSCAASGRIFSFNAMGWYRQAPGKERELVAAISWSTGSTFYADSVKGRFTISRDNAKNTVYLQMNSLKPEDTAVYYCAREYYYRRGFFLRGYWGQGTQVTVSS | high polyreactivity |
| QVQLVESGGGLVQAGGSLRLSCAASGRIFSFNAMGWYRQAPGKERELVAGITDSGGSTYYADSVKGRFTISRDNAKNTVYFQMNSLKPEDTAVYYCNAEWPYSRVREYFYAYDYWGQGTQVTVSS | low polyreactivity |
| QVQLVESGGGLVQAGGSLRLSCAASGRIFSFNGMGWYRQAPGKERELVAAITTSGGRTYYADSVKGRFTISRDNAKNTVYLQINSLKPEDTAVYYCAAELAWEYYWGQGTQVTVSS | low polyreactivity |
| QVQLVESGGGLVQAGGSLRLSCAASGRIFSGSVMGWYRQAPGKVRELVAGITYRDGSTYYADSVKGRFTISRDNAKNTVYFQMNSLKPEDTAVYYCNADDYNDIPYDYWGQGTQVTVSS | low polyreactivity |
| QVQLVESGGGLVQAGGSLRLSCAASGRIFSGYAMGWYIQAHGKERELVAAISSTGGTYYADSVKGRFTISRDNAKNTVYLQMNSLKPEDTAVYYFAARYRTLTKYYWGQGTQVTVSS | low polyreactivity |
| QVQLVESGGGLVQAGGSLRLSCAASGRIFSGYAMGWYRQAPGKERELVAVITSTGGSTYYADSVKGRFTISRDNAKNTVYLQMNSLKPEDTAVYYCATRGVRRYYKTMNYWGQGTQVTVSS | high polyreactivity |
| QVQLVESGGGLVQAGGSLRLSCAASGRIFSGYVKGWYRQAPGKERELVASISRGGSTNYADSVKGRFTISRDNAKNTVYLQMNSLKPEDTAVYYCNKRWFAPPPYSYVRSYDYWGQGTQVTVSS | low polyreactivity |
| QVQLVESGGGLVQAGGSLRLSCAASGRIFSHDVMGWYRQAPGKERELVAAISSSGGSTYYADSVKGRFTISRDNAKNTVYLQMNSLKPEDTAVYYCAADQWASGTDDYWGQGTEVTVSS | low polyreactivity |
| QVQLVESGGGLVQAGGSLRLSCAASGRIFSHNVMGWYRQAPGKERELVAAISGRDGSTYYADSVKGRFTISRDNAKNTVYLQMNSLKPEDTAVYYCATDTSNVEGDYWGQGTQVTVSS | low polyreactivity |
| QVQLVESGGGLVQAGGSLRLSCAASGRIFSHYAMGLYREAPGKERELVAAITGSGGITYYADSVKGRFTISRDKSKNTVFLQMISLKPEDTAVYYCAADGLSKFDYLGQGTQVTVSS | low polyreactivity |
| QVQLVESGGGLVQAGGSLRLSCAASGRIFSHYAMGWYRQAPGKEREFVAAITYSGGSTYYADSVKGRFTISRDNAKNTVYLQMNSLKPEDTAVYYCNAKGYAKYYYWGQGTQVTVSS | high polyreactivity |
| QVQLVESGGGLVQAGGSLRLSCAASGRIFSIYGMGWSRQAPGKERELVAVISGSVGITYYADSVKVRFTISRDNAKNTVYLQMISLKPEDTAVYYCNAKVRRRKYDYWGQGTQVTVSS | high polyreactivity |
| QVQLVESGGGLVQAGGSLRLSCAASGRIFSKNAMGWYRQAPGKERELVAAISSRGGSTYYADSVKGRFTISRDNAKNTVYLQMNSLKPEDTAVYYCAAGNGAYNYWCRYGYWGQGTQVTVSS | high polyreactivity |
| QVQLVESGGGLVQAGGSLRLSCAASGRIFSLNTLGWYRQAPGKERELVAAINRGGRSYYADSVKGRFTISRDNAKITVNLQMNSLKPEDTAVYYCAAEVVRQGSYRYGYWGQGTQVTVSS | high polyreactivity |
| QVQLVESGGGLVQAGGSLRLSCAASGRIFSLYAMGWYRQAPGKERELVAAISWSGGTTYYADSVKGRFTISRDNAKNTVYLQMNSLKPEDTAVYYCAADTGTGLDWGQGSQVTVSS | high polyreactivity |
| QVQLVESGGGLVQAGGSLRLSCAASGRIFSLYAMGWYRQAPGKERELVATMDSNGGSTYYADSVKGRFTISRDNAKNTVYLQMNSLKPEDTAVYYCAAERYVRVWVAGILHYDYWGQGTQVTVSS | low polyreactivity |
| QVQLVESGGGLVQAGGSLRLSCAASGRIFSLYAMGWYRQAPGKERELVAVITYRGGDSTYYADSVKGRFTISRDNAKNTVYLQMNSLKPEDTAVYYCAAGQPLYQRRHSSRTYYYWGQGTQVTVSS | high polyreactivity |
| QVQLVESGGGLVQAGGSLRLSCAASGRIFSNNAMGWYRQAPGKERELVAAISWNGGRTYYADSVKGRFTISRDNAKNTVYLQMNSLKPEDTAVYYCAAGRYDYWGQGTQVTVSS | high polyreactivity |
| QVQLVESGGGLVQAGGSLRLSCAASGRIFSPYAMGWYRQAPGKERELVAAISFSAASTYYADSVKGRFTISRDNAKNTVYLQMNSLKPEDTAVYYCAADYWGQGTQVTVSS | high polyreactivity |
| QVQLVESGGGLVQAGGSLRLSCAASGRIFSPYAMGWYRQAPGKERELVAAISGRGGRTYYADSVKGRFTISRDNAKNTVYLQMNSLKPEDTAVYYCNRVVSGYPGSDYWGQGTQVTVSS | high polyreactivity |
| QVQLVESGGGLVQAGGSLRLSCAASGRIFSPYTMGWYRQAPGKERELVAAINERGTSTYYADTVKGRFSISRDNAKNTVYLQKNSLKPEDTAVYYCAARVRQRRYGTTSGGYDYWGQGTQVTVSS | high polyreactivity |
| QVQLVESGGGLVQAGGSLRLSCAASGRIFSQYAMGWYRQAPGKERELVAAISRRTGSTYYADSVKGRFTISRDNAKNTVYLQMNSLKPEDTAVYYCNKARLGWSYRQDDYLGQGTQVTVSS | high polyreactivity |

| Sequence | polyreactivity (PSR sort gate) |
| --- | --- |
| QVQLVESGGGLVQAGGSLRLSCAASGRIFSRNAMGWYRQAPGKEREFVAAISRRGTSTYYADSVKGRFTISRDNAKNTVYLQMNSLIPEDTAVYYCNAGGSPWYKPVYYRALYDYWGQGTQVTVSS | high polyreactivity |
| QVQLVESGGGLVQAGGSLRLSCAASGRIFSRNAMGWYRQAPGKERELVAAITSGGSTYYADSVKGRFTISRDNAKNTVYLQMNSLKPEDTAVFYCAKRLTYYSWYHRYDYWGQGTQVTVLS | high polyreactivity |
| QVQLVESGGGLVQAGGSLRLSCAASGRIFSRYAMGWYRQAPGKERELVAAINKSGGSTYYADSVKGRFTISRDNAKNTVYLQMNSLKPEDTAVYYCATDDPVYDYDYWGQGTQVTVSS | high polyreactivity |
| QVQLVESGGGLVQAGGSLRLSCAASGRIFSRYAMGWYRQAPGKERELVAAISRRGGSTYYADSVKGRFTISRDNAKNTVYLQMNSLKPEDTAVYYCAADFSPYYDLATEISDYWGQGTQVTVSS | high polyreactivity |
| QVQLVESGGGLVQAGGSLRLSCAASGRIFSRYAMGWYRQAPGKERELVAAITQSGTSTYYADSVKGRFTISRDNAKNTVYLQMKSLKPEDTAVYYCNAYRQYRYDYWGQGTQVTVSS | low polyreactivity |
| QVQLVESGGGLVQAGGSLRLSCAASGRIFSRYAMGWYRQAPGKEREMVAAIRSNGGRTYYADSVKGRFTISRDNAKNTVYLQMNSLKPEDTAVYYCAAAGGGKVSYRDYDYWGQGTQVTVSS | high polyreactivity |
| QVQLVESGGGLVQAGGSLRLSCAASGRIFSRYAMGWYRQAPGTERELVAAINKSGGSTYYADSVKGRFTISRDNAKNTVYLQMNSLKPEDTAVYYCNAVYYWYKGDYWGQGTQVTVSS | high polyreactivity |
| QVQLVESGGGLVQAGGSLRLSCAASGRIFSRYAMGWYRQAPGTERELVAAISASGGSTYYADSVKGRFTISRDNAKNTVYLQMNSLKPEDTAVYYCNAYQTSTTLFPGYGYWGQGTQVTVSS | low polyreactivity |
| QVQLVESGGGLVQAGGSLRLSCAASGRIFSRYTMGWYRQAPGKERELVAAISSRGGSTYYADSVKGRFTISRDNAKNTVYLQMNSLKPEDTAVYYCNTPSYSGSSPYDHWGQGTQVTVSS | high polyreactivity |
| QVQLVESGGGLVQAGGSLRLSCAASGRIFSRYTMGWYRQAPGKERELVAGITRGGGSTYYADSVKGRFTISRDNAKNTVYLQMNSLKPEDNAVYYCNAETSYAWWHYDYWGQGTQVTVSS | low polyreactivity |
| QVQLVESGGGLVQAGGSLRLSCAASGRIFSSNAMGSYRQAPGKERELVAGISIRGGSTYYADSVKGRFTISRDNAKNTVYLQMNSLKPEDTAVYYCAKDGRRRRTFDYWGQGTQVTVSS | high polyreactivity |
| QVQLVESGGGLVQAGGSLRLSCAASGRIFSSYALGWYRQARGKERELVAAISASGGRTYYADSVKGRCTISRDNAKNTVYLQMNSLKPEDTAVYYCNRGYISGSVVERYYWGQGTQVTVSS | high polyreactivity |
| QVQLVESGGGLVQAGGSLRLSCAASGRIFSSYAMGWYRQAPGKERELVAAISGSGGRTYYADSVKGRFTISRDNAKNTVYLQMNSLKPEDTAVYYCNARRRSPYSTGVAYDYWGQGTQVTVSS | high polyreactivity |
| QVQLVESGGGLVQAGGSLRLSCAASGRIFSSYAMGWYRQAPGKERELVAAISSSGGNTYYADSVKGRFTISRDNAKNTVYLQMNSLKPEDTAVYYCNTRWVHRDWYDYWGLGTQVTVSS | high polyreactivity |
| QVQLVESGGGLVQAGGSLRLSCAASGRIFSSYAMGWYRQAPGKERELVAANSRSGARTYYADSVKGRFTISRDNAKNTVYLQMNSLKPEDTAVYYCAAVTVAGYDYWGQGTQVTVSS | high polyreactivity |
| QVQLVESGGGLVQAGGSLRLSCAASGRIFSTNAMGWYRPAPGKERELVAAINWSTGSYVLRRSVKGRFTISRDTAKNTVYLQMNSLKPEDTAVYYCAATWRNPGKATQRYYYWGQGTQVTVSS | high polyreactivity |
| QVQLVESGGGLVQAGGSLRLSCAASGRIFSTYAMGWYRQAPGKERELVAAINKIGGSTYYADSVKGRITISRDNAKNTVYLQMNSLKPEDTAVYYCAADAPYYPVRRYYYWGQGTQVTVSS | low polyreactivity |
| QVQLVESGGGLVQAGGSLRLSCAASGRIFSTYAMGWYRQAPGKERELVAAITNSAGSTYYADSVKGRFTISRDNAKNTVYLHMNSLKPEDTALYYCATGWSRISYGFDYWGQGTLVTVSS | low polyreactivity |
| QVQLVESGGGLVQAGGSLRLSCAASGRIFSTYAMGWYRQAPGKERELVAAITWDGRTYYADSVKGRFTISRDNAKNTVYLQMNSLKPEDTAVYYCAADGEYRYDWEYESWGQGTQVTVSS | low polyreactivity |
| QVQLVESGGGLVQAGGSLRLSCAASGRIFSVYAMGWYRQAPGKEREFVAAITKGGVGTYYADSVKGRFTISRDNAKNTVSLQMNCLKPEDTAVYYCAARGTSRQTWLFRYNWNDYWGQGTQVTVSS | high polyreactivity |
| QVQLVESGGGLVQAGGSLRLSCAASGRIFSVYAMGWYRQAPGKEREFVAAITKGGVGTYYADSVKGRFTISRDNAKNTVYLQMNSLKPEDTAVYYGAARHYYGADRYYSWGQGTQVTVSS | high polyreactivity |
